# According to patent US20030027152, “Generation of diagnostic tools to assay the human LHX3/P-LIM/LIM-3 factor” (Indiana University Advanced Research and Technology …, published 2003):
# T1: hLhx3a (Homo sapiens, UniProt Q9UBR4 SEQ:1-397)
# T1 sequence: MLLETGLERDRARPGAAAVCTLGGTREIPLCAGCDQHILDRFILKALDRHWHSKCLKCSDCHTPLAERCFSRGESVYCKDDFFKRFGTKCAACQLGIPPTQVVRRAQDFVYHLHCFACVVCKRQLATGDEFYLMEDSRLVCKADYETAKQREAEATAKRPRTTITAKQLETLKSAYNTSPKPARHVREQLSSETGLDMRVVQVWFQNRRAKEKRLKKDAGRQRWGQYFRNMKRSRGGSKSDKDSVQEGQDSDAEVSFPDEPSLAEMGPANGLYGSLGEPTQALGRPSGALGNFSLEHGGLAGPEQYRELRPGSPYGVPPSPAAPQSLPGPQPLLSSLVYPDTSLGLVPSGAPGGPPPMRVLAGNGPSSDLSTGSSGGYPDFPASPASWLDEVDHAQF
# T2: GST-hLhx3a (Homo sapiens, UniProt Q9UBR4 SEQ:1-397)
# T2 sequence: T1 sequence
# T3: hLhx3a-myc (Homo sapiens, UniProt Q9UBR4 SEQ:1-397)
# T3 sequence: T1 sequence
# T4: GST-ΔLIM pLhx3 (Sus scrofa, UniProt O97581 SEQ:134-383)
# T4 chain: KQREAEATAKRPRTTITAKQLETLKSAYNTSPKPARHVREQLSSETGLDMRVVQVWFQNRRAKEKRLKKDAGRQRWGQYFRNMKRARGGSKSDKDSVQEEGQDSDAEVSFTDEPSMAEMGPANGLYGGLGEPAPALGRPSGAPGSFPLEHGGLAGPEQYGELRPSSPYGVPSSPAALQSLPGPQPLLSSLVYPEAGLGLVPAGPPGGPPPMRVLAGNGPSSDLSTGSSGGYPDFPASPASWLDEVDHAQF
# B1: αGSU -350/-323 (PGBE) (dsDNA)
# DNA 1: ACATTAGGTACTTAGCTAATTAAATGTG
# DNA 2: CACATTTAATTAGCTAAGTACCTAATGT
# B2: Lhx3 consensus binding site (dsDNA)
# DNA 1: CAGAAAATTAATTAATTGTAA
# DNA 2: TTACAATTAATTAATTTTCTG
# B3: porcine αGSU -351/-324 mutant (dsDNA)
# DNA 1: ACATTAGGTACTTGGCGCGCCAAATGTG
# DNA 2: CACATTTGGCGCGCCAAGTACCTAATGT
# B4: porcine αGSU -351/-324 wild type (dsDNA)
# DNA 1: ACATTAGGTACTTAGCTAATTAAATGTG
# DNA 2: CACATTTAATTAGCTAAGTACCTAATGT
# What was measured:
# hLhx3a [1] = target: T1, hLhx3a; assay: EMSA; in vitro translated; text states more effective than hLhx3b at both sites; conditions: label: radiolabel
# Description: (§1) Radiolabeled probes were incubated with the indicated proteins and competitor DNAs and the resulting complexes were separated from free probe (F) by electrophoresis. Lane 1, unprogrammed rabbit reticulocyte lysate as a negative control (lysate); lanes 2-5 (hLhx3a; hLhx3b; hLhx3a-myc; and hLhx36-myc, respectively), reactions contained in vitro translated hLhx3 proteins including isoforms comprising a myc tag epitope. A nonspecific band is noted by an asterisk (*). Human Lhx3 protein/DNA complexes are indicated by an arrow. Lane 6 depicts the lack of binding using GST as a negative control; lanes 7-14 (GST-hLhx3a, more GST-hLhx3a, comp plus hLhx3a, GST-hLhx3b; more GST-hLhx3b, comp plus hLhx3b, GST-hLhx3a, and GST-hLhx36, respectively) depict binding of the DNA probe by recombinant hLhx3 proteins expressed in E. coli. “Comp” denotes reactions containing approximately 1000-fold molar excess of unlabeled binding site as a competitor.
# (§2) Without wishing to be bound by any particular theory, mechanisms for the different activities include the possibilities that the a-specific and b-specific domains are trans-activation or trans-repression domains, respectively, or that the a- and b-specific domains mediate interaction with distinct regulatory factors, or that the a- and b-specific domains modulate the DNA binding properties of hLhx3 differently. […]
# GST-hLhx3a [2] = target: T2, GST-hLhx3a; assay: EMSA; binds more effectively than GST-hLhx3b; conditions: tags: N-terminal GST (pGEX-KT); label: radiolabel
# Description: (§3) FIG. 18B is an image of a gel depicting an electrophoretic mobility shift assay (EMSA) using Lhx3 consensus binding site (lanes 1-12) or αGSU gene −350 to −323 binding site (lanes 13 and 14) as oligonucleotide probes. Radiolabeled probes were incubated with the indicated proteins and competitor DNAs and the resulting complexes were separated from free probe (F) by electrophoresis. Lane 1, unprogrammed rabbit reticulocyte lysate as a negative control (lysate); lanes 2-5 (hLhx3a; hLhx3b; hLhx3a-myc; and hLhx36-myc, respectively), reactions contained in vitro translated hLhx3 proteins including isoforms comprising a myc tag epitope. A nonspecific band is noted by an asterisk (*). Human Lhx3 protein/DNA complexes are indicated by an arrow. Lane 6 depicts the lack of binding using GST as a negative control; lanes 7-14 (GST-hLhx3a, more GST-hLhx3a, comp plus hLhx3a, GST-hLhx3b; more GST-hLhx3b, comp plus hLhx3b, GST-hLhx3a, and GST-hLhx36, respectively) depict binding of the DNA probe by recombinant hLhx3 proteins expressed in E. coli. “Comp” denotes reactions containing approximately 1000-fold molar excess of unlabeled binding site as a competitor.
# hLhx3a-myc = target: T3, hLhx3a-myc; assay: EMSA; similar to untagged; more effective than hLhx3b-myc; conditions: tags: C-terminal myc (pcDNA3.1/Myc-His); label: radiolabel
# Description: as §1, §2
# GST [3] = target: T5, GST (UniProt P08515 P08515:1-218); assay: EMSA; GST negative control; conditions: tags: GST alone, pGEX-KT; label: radiolabel
# Description: as §3
# GST-hLhx3a [4] = target: T2, GST-hLhx3a; assay: EMSA; reduced by 1000-fold unlabeled competitor; conditions: tags: N-terminal GST (pGEX-KT); label: radiolabel
# Description: as §3
# hLhx3a [5] = target: T1, hLhx3a; assay: EMSA; binds more effectively than hLhx3b; conditions: label: radiolabel
# Description: as §1, §2
# GST-ΔLIM pLhx3 [6] = target: T4, GST-ΔLIM pLhx3; assay: competition; 200 ng unlabeled mutant did not compete; conditions: tags: N-terminal GST (pGEX-KT)
# Description: (§4) FIG. 4B is an image depicting an analysis of recombinant porcine pLhx3 protein binding to DNA target sequences. The image depicts electrophoretic mobility shift assay using labeled wild type and mutant oligonucleotides representing the −351 to −324 bp region of the porcine αGSU gene promoter. Probes were incubated with the indicated proteins and competitor DNA and the resulting complexes were separated from free probe (F) by electrophoresis. The panel on the right of the figure was exposed three times as long as the left-hand panel to detect weak binding of GST-pLhx3 to the porcine αGSU binding site (which is indicated by an arrow).
# GST-ΔLIM pLhx3 [7] = target: T4, GST-ΔLIM pLhx3; assay: EMSA; affinity relative to full-length GST-pLhx3 (LIM deletion); competed by unlabeled wild type; conditions: tags: N-terminal GST (pGEX-KT); label: radiolabel
# Description: as §4
# GST [8] = target: T5, GST; assay: EMSA; GST negative control; conditions: tags: GST alone, pGEX-KT; label: radiolabel; remark: listed apart in the source
# Description: as §4
# T5 sequence (P08515 whole entry, one chain of several): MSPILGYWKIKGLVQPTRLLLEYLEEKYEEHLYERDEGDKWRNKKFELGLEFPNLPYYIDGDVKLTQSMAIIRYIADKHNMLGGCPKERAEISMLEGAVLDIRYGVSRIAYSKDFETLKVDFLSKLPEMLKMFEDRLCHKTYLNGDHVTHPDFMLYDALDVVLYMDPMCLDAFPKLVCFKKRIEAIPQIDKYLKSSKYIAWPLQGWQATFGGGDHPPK
binder,measurement,setting,value
B1,binding result,hLhx3a [1],binds
same,binding result,GST-hLhx3a [2],binds
B2,binding result,hLhx3a-myc,binds
same,binding result,GST [3],no binding
same,binding result,GST-hLhx3a [4],binds
same,binding result,hLhx3a [5],binds
B3,binding result,GST-ΔLIM pLhx3 [6],no binding
B4,binding signal,GST-ΔLIM pLhx3 [7],≥ 15 fold
same,binding result,GST [8],no binding
